According to US20230002503A1 (BIOTHEUS, published 2023):

Columns and labels:
[1] = molecular target: T1, human CAIX antigen (purchased from AcroBiosystems) (human, UniProt Q16790 38-414); assay: BLI (ForteBio), antibody on AHQ sensor, 100 nM antigen, 1:1 model
[2] = molecular target: T2, human CAIX on CHO cells (CHO-hCAIX) (human, UniProt Q16790 38-459); assay: flow cytometry on CHO-hCAIX cells, anti-human IgG-Fc PE
Experimental: (§1) CHO cells overexpressing human CAIX (CHO-hCAIX cells) were generated by the pCHO1.0 vector (purchased from Invitrogen) transfected with CAIX cDNA. The cell density of the proliferated CHO-CAIX cells were adjusted to 2×10⁶ cells/ml, added at 100 μL/well to a 96-well flow cytometry plate, and centrifuged for later use. The purified CAIX antibody was diluted with PBS, and 3-fold dilution was started from 400 nM for a total of 12 points, and 100 μL/well of the above diluted sample was added to the above-mentioned 96-well flow cytometry plate with the cells, incubated at 4° C. for 30 min, and washed with PBS for two times. Goat F(ah′)2 Anti-Human IgG-Fc(PE) (purchased from Abeam, ab98596) diluted 100 times with PBS was added at 100 μL/well, incubated at 4° C. for 30 min, and washed twice with PBS. PBS was added at 100 μl/well to resuspend the cells, the cells were detected on a CytoFlex (Bechman) flow cytometer, and the corresponding MFI was calculated.

[3] = molecular target: T3, monkey CAIX on CHO cells (CHO-cyCAIX) (monkey); assay: flow cytometry on CHO-cyCAIX cells
T3 construct: whole, on cells
Experimental: as §1
In order to identify the affinity of the antibody to monkey CAIX (cyCAIX) at cell level, the cell strain was constructed according to the method described in Example 4, the affinity of the purified humanized antibody to CHO-cyCAIX was identified at cell level, and the results were shown in FIG. 3 and Table 6.

[4] = molecular target: T1, human CAIX antigen (purchased from …); assay: BLI (ForteBio), method of Example 3
[5] = molecular target: T4, murine CAIX on CHO cells (CHO-mCAIX) (mouse, UniProt Q8VHB5 32-437); assay: flow cytometry on CHO-mCAIX cells
T4 construct: whole, on cells; also called mouse CAIX
Experimental: as §1
In order to identify the affinity of the antibody to murine CAIX (mCAIX) at cell level, the cell stain was constructed according to the method described in Example 4, the affinity of the purified humanized antibody to CHO-mCAIX at cell level was identified, and the results were shown in FIG. 4 and Table 7.

[6] = molecular target: T2, human CAIX on CHO cells (CHO-hCAIX); assay: flow cytometry on CHO-hCAIX cells
Experimental: as §1
The purified humanized antibodies were subjected to the detection of binding capacity of the purified humanized nanobody to CHO-hCAIX at cell level according to the method described in Example 4, and the results were shown in FIG. 2 and Table 5.

[7] = molecular target: T1, human CAIX antigen (purchased from …); assay: BLI (ForteBio), method of Example 3; second run, alongside the humanized antibodies (Table 4)

T4 sequence (Q8VHB5 32-437): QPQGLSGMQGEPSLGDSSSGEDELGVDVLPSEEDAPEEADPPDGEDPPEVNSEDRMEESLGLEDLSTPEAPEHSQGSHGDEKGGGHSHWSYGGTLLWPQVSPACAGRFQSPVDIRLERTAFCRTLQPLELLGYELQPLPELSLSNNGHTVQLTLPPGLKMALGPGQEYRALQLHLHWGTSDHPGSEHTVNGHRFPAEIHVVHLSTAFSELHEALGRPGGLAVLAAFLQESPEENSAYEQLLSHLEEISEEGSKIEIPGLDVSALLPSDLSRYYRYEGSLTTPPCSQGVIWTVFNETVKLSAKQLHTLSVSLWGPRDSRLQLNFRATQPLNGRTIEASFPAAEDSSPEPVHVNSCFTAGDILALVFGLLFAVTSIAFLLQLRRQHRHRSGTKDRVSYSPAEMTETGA

Binder	Kd [1]	koff [1]	kon [1]	EC50 [2]	EC50 [3]	Kd [4]	koff [4]	kon [4]	EC50 [5]	EC50 [6]	Kd [7]
Hu-H-YE-05-D3 (Fc fusion, also called humanized recombinant antibody from H-YE-05; not shown: human IgG1 Fc segment) EVQLLESGGGLVQPGGSLRLSCAASGNSVNIFSFAAMSWYRQAPGKGLELVAVITTTGGTKYSDSVKGRFTISRDNSKNTLYLQMNSLRAEDTAVYYCNADYLQDYWGQGTQVTVSS	–	–	–	–	14.3 nM	10.3 nM	0.00185 s⁻¹	179000 M⁻¹ s⁻¹	20.8 nM	4.46 nM	–
Hu-H-YE-23-D2 (Fc fusion, T0013 prints the label as Hu-H-YB-23-D2; also called Hu-H-YB-23-D2; humanized recombinant antibody from H-YE-23; not shown: human IgG1 Fc segment) QVQLVESGGGLVQPGGSLRLSCSASGNSANIFSFASVAWYRQAPGKGLELVSVITSAGGTKYSDSVKGRFTISRDNSKNTLYLQMNSLRAEDTAVYYCNVDYLQDYWGQGTLVTVSS	–	–	–	–	25.1 nM	6.68 nM	0.00105 s⁻¹	158000 M⁻¹ s⁻¹	43.7 nM	8.71 nM	–
Hu-H-YE-32-D6 (Fc fusion, also called humanized antibody from H-YE-32; not shown: human IgG1 Fc segment) QVQLVESGGGLVQPGGSLRLSCSASGGARNIFSFAAMAWYRQAPGKGLELVAVITSAGGTQYSSSVKGRFTISRDNSKKTLYLQMNSLRAEDTAVYYCNADYYQDYWGQGTQVTVSS	–	–	–	–	8.39 nM	0.384 nM	0.0001 s⁻¹	260000 M⁻¹ s⁻¹	59.6 nM	9.61 nM	–
Hu-H-YE-32-D5 (Fc fusion, T0013 prints the label as Hu-H-YB-32-D5; also called Hu-H-YB-32-D5; humanized antibody from H-YE-32; not shown: human IgG1 Fc segment) QVQLVESGGGLVQPGGSLRLSCSASGGARNIFSFAAMHWYRQAPGKGLELVAVITSAGGTYYADSVKGRFTISRDNSKKTLYLQMNSLRAEDTAVYYCNADYYQDYWGQGTQVTVSS	–	–	–	–	22.7 nM	8.2 nM	0.00177 s⁻¹	216000 M⁻¹ s⁻¹	552 nM	2.33 nM	–
H-YE-03 (Fc fusion, also called CAIX nanobody H-YE-03; not shown: human IgG1 Fc segment) QVQLQESGGGLVQPGGSLRLSCTASTSSFNFQTMGWYRQAPGKQRELVATITSRAITNYADSVKGRFTISRDNAAKTVSLQMNSLKPEDTAVYYCNAAWIGDYWGQGTQVTVSA	1.14 nM	0.00141 s⁻¹	1.24e+06 M⁻¹ s⁻¹	7.34 nM	–	–	–	–	–	–	–
H-YE-24 (Fc fusion, also called CAIX nanobody H-YE-24; not shown: human IgG1 Fc segment) QVQLQESGGGLVQPGGSLRLSCAASGNSVNIFRFAAMAWYRQAPGKQRELVAVITSAGGTKYSDSVKGRFTISRDNAKNTVLLQMNSLKPEDTAVYYCNADYLQDYWGQGTQVTVSS	1.34 nM	0.000798 s⁻¹	594000 M⁻¹ s⁻¹	3.06 nM	–	–	–	–	–	–	–
Hu-H-YE-05-D4 (Fc fusion, also called humanized recombinant antibody from H-YE-05; not shown: human IgG1 Fc segment) EVQLLESGGGLVQPGGSRRLSCAASGNSVNIFSFAAVAWYRQAPGKQRELVAVITTTGGTKYSDSVKGRFTISRDSSKNTVYLQMNSLRAEDTAVYYCNADYLQDYWGQGTQVTVSS	–	–	–	–	13.5 nM	7.84 nM	0.00142 s⁻¹	181000 M⁻¹ s⁻¹	58.8 nM	5.07 nM	–

The remaining lines, values ahead:

Kd [1]	koff [1]	kon [1]	EC50 [2]	EC50 [3]	Kd [4]	koff [4]	kon [4]	EC50 [5]	EC50 [6]	Kd [7]	Binder
2.39 nM	0.00249 s⁻¹	1.04e+06 M⁻¹ s⁻¹	6.07 nM	–	–	–	–	–	–	–	H-YE-37 (Fc fusion, also called CAIX nanobody H-YE-37; not shown: human IgG1 Fc segment) QVQLQESGGGLMHDGDSLRLSCAASGRTFSTYAMGWFRQAPGKEREFVAAISWSGGSTYYADSVKGRFTISRDNAKNTVYLQMNSLKPEDTAVYYCAAEGIYNSGSSYHDANGYDYWGQGTQVTVSS
2.53 nM	0.00125 s⁻¹	495000 M⁻¹ s⁻¹	4.74 nM	–	–	–	–	–	–	–	H-YE-40 (Fc fusion, also called CAIX nanobody H-YE-40; not shown: human IgG1 Fc segment) QVQLQESGGGLVQAGGSLRLSCAASGRTFSSYAMGWFRQAPGKEREFVATISWNGGSTYYADSVKGRFTISRDNAKNTVYLQMNSLKPEDTAVYYCAAEHDLGELAGTGYDYWGQGTQVTVSS
0.282 nM	0.000259 s⁻¹	919000 M⁻¹ s⁻¹	7.78 nM	–	–	–	–	–	–	–	H-YE-04 (Fc fusion, also called CAIX nanobody H-YE-04; not shown: human IgG1 Fc segment) QVQLQESGGGLVQPGGSLRLSCTASTSSFNFQTLGWYRQAPGNQRELVATITSRAITNYADSVKGRFTISRDNAAKTVSLQMNSLKPEDTAVYYCNAAWIGDYWGQGTQVTVSS
0.529 nM	0.000513 s⁻¹	969000 M⁻¹ s⁻¹	–	–	–	–	–	–	–	–	H-YE-38 (Fc fusion, also called CAIX nanobody H-YE-38; not shown: human IgG1 Fc segment) QVQLQESGGGLMQPGGSLTLSCAVPRFTLDYYAIGWFRQAPGKEREFVAAISWSGGTTQYSDSAKGRFTISRDNSKNTGYLQMNSLKPEDTATYYCAAGRQLEWRTYDYWGQGTQVTVSS
0.498 nM	0.000492 s⁻¹	988000 M⁻¹ s⁻¹	6.14 nM	9.42 nM	0.369 nM	0.0001 s⁻¹	271000 M⁻¹ s⁻¹	34.1 nM	14.6 nM	–	H-YE-32 (Fc fusion, also called CAIX nanobody H-YE-32; not shown: human IgG1 Fc segment) QVQLQESGGGLVQPGGSLRLSCAASGGARNIFSFAAMAWYRQAPGKQRELVAVITSAGGTQYSSSVKGRFTISRDNAKKTVLLQMNSLKPEDTAVYYCNADYYQDYWGQGTQVTVSS
0.109 nM	0.000109 s⁻¹	999000 M⁻¹ s⁻¹	4.46 nM	–	–	–	–	–	–	–	H-YE-26 (Fc fusion, also called CAIX nanobody H-YE-26; not shown: human IgG1 Fc segment) QVQLQESGGGLVQAGGSLRLSCAASGNSVNIFRFATVAWYRQAPGEQRELVAVITSAGGTKYSDSVKGRFTISRDNAKNTVLLQMNSLKPEDTAVYYCNADFLQDYWGQGTQVTVSS
1.21 nM	0.00106 s⁻¹	875000 M⁻¹ s⁻¹	2.44 nM	–	–	–	–	–	–	–	H-YE-25 (Fc fusion, also called CAIX nanobody H-YE-25; not shown: human IgG1 Fc segment) QVQLQESGGGLVQPGGSLRLSCAASGNSVNIFRFAAMAWYRQAPGKQRELVAVITTTGGTKYSDSVKGRFTISRDSAKNTVLLQMNSLKPEDTAVYYCNADYLQDYWGQGTQVTVSS
0.218 nM	0.0002 s⁻¹	917000 M⁻¹ s⁻¹	3.55 nM	6.55 nM	4.08 nM	0.000556 s⁻¹	136000 M⁻¹ s⁻¹	38.1 nM	3.11 nM	–	H-YE-23 (Fc fusion, also called CAIX nanobody H-YE-23; WYE-23; not shown: human IgG1 Fc segment) QVQLQESGGGLVQPGGSLRLSCAASGNSANIFSFASVAWYRQAPGKQRELVAVITSAGGTKYSDSVKGRFTISRDNAKNTILLQMNSLKPEDTAVYYCNVDYLQDYWGQGTQVTVSS
0.557 nM	0.000662 s⁻¹	1.19e+06 M⁻¹ s⁻¹	8.79 nM	7.32 nM	–	0.00159 s⁻¹	155000 M⁻¹ s⁻¹	31.7 nM	4.55 nM	10.3 nM	H-YE-05 (Fc fusion, also called CAIX nanobody H-YE-05; not shown: human IgG1 Fc segment) QVQLQESGGGLVQPGGSRRLSCAASGNSVNIFSFAAVAWYRQAPGKQRELVAVITTTGGTKYSDSVKGRFTISRDSAKNTVLLQMNSLKPEDTAVYYCNADYLQDYWGQGTQVTVSS
2.04 nM	0.00139 s⁻¹	682000 M⁻¹ s⁻¹	2.78 nM	–	–	–	–	–	–	–	H-YE-33 (Fc fusion, also called CAIX nanobody H-YE-33; not shown: human IgG1 Fc segment) QVQLQESGGGLVQPGGSLRLSCAASGGDFRFYDMGWYRQAPGKQRELVAGITTRGYTNYADVVKGRFTISRDNAKNTVYLEMNSLKPEDTAVYSCSASHFLGGRIDYWGQGTQVTVSS
